Results: patent publication US20170176432A1 (OSAKA UNIVERSITY, published 2017)

Legend:
[1] = target: T1, human β2-glycoprotein I (β2-GPI) (human, UniProt P02749 20-345); experiment: flow cytometry of surface β2-GPI on 293T; HLA-DRB1*01:03
T1 construct: whole, on cells
T1 sequence (looked up): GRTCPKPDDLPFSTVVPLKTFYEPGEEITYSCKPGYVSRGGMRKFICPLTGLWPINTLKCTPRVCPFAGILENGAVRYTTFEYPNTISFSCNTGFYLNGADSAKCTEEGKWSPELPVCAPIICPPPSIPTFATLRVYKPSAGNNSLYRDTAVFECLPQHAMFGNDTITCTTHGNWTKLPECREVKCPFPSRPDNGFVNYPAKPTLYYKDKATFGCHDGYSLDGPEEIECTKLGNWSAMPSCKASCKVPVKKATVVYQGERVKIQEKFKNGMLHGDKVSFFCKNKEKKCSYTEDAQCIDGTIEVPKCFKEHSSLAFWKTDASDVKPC

[2] = target: T2, human thyroglobulin (TG) (human, UniProt P01266 20-2768); experiment: flow cytometry of surface TG (anti-histidine antibody) on 293T; HLA-DRB1*01:03
T2 construct: whole, on cells; the tag is not described

[3] = target: T1, human β2-glycoprotein I (β2-GPI); experiment: flow cytometry of surface β2-GPI on 293T; HLA-DRB1*13:01
[4] = target: T1, human β2-glycoprotein I (β2-GPI); experiment: flow cytometry of surface β2-GPI on 293T; HLA-DRB1*13:02
[5] = target: T1, human β2-glycoprotein I (β2-GPI); experiment: flow cytometry of surface β2-GPI on 293T; HLA-DRB1*14:01
[6] = target: T1, human β2-glycoprotein I (β2-GPI); experiment: flow cytometry of surface β2-GPI on 293T cells (β2-GPI+HLA-DR4)
Description: The HLA-DRA*01:01 vector as an α-chain expression vector, the HLA-DRB1*04:04 vector as a β-chain expression vector, the β2-GPI vector, and the GFP vector were introduced to 293T cells, and the 293T cells were cultured. The cultured cells were reacted with an anti-β2-GPI antibody or an anti-cardiolipin antibody (aCL), and further reacted with the APC-labeled anti-human IgG antibody. Then, GFP-positive cells were subjected to flow cytometry analysis in the same manner as in Example 1A. As Control 1, the analysis was performed in the same manner, except that only the β2-GPI expression vector was introduced. As Control 2, the analysis was performed in the same manner, except that only the GFP vector was introduced. [0219] anti-β2-GPI antibody: polyclonal antibody, available from Atlas antibodies [0220] human anti-cardiolipin antibody: Clone EY2C9, supplied by Professor Atsumi, School of Medicine in Hokkaido University. Reference was made to the following paper: Ichikawa, K., M. A. Khamashta, T. Koike, E. Matsuura, and G. R. V. Hughes. 1994. P2-Glycoprotein I reactivity of monoclonal anticardiolipin antibodies from patients with the antiphospholipid syndrome. Arthritis Rheum. 37: 1453.

[7] = target: T1, human β2-glycoprotein I (β2-GPI); experiment: flow cytometry of surface β2-GPI on 293T; HLA-DRB1*08:03
[8] = target: T1, human β2-glycoprotein I (β2-GPI); experiment: flow cytometry of surface β2-GPI on 293T; HLA-DRB1*08:01
[9] = target: T1, human β2-glycoprotein I (β2-GPI); experiment: flow cytometry of surface β2-GPI on 293T; HLA-DRB1*03:01
[10] = target: T1, human β2-glycoprotein I (β2-GPI); experiment: flow cytometry of surface β2-GPI on 293T; HLA-DRB1*09:01
[11] = target: T1, human β2-glycoprotein I (β2-GPI); experiment: flow cytometry of surface β2-GPI on 293T; HLA-DRB1*11:01
[12] = target: T1, human β2-glycoprotein I (β2-GPI); experiment: flow cytometry of surface β2-GPI on 293T; HLA-DRB1*04:03
[13] = target: T1, human β2-glycoprotein I (β2-GPI); experiment: flow cytometry of surface β2-GPI on 293T; HLA-DRB1*07:01
[14] = target: T1, human β2-glycoprotein I (β2-GPI); experiment: flow cytometry of surface β2-GPI on 293T; HLA-DRB1*04:05
[15] = target: T1, human β2-glycoprotein I (β2-GPI); experiment: flow cytometry of surface β2-GPI on 293T; HLA-DRB1*04:06
[16] = target: T1, human β2-glycoprotein I (β2-GPI); experiment: flow cytometry of surface β2-GPI on 293T; HLA-DRB1*13:03
[17] = target: T1, human β2-glycoprotein I (β2-GPI); experiment: flow cytometry of surface β2-GPI on 293T; HLA-DRB1*14:02
[18] = target: T1, human β2-glycoprotein I (β2-GPI); experiment: flow cytometry of surface β2-GPI on 293T; HLA-DRB1*14:03
[19] = target: T2, human thyroglobulin (TG); experiment: flow cytometry of surface TG (anti-histidine antibody) on 293T; HLA-DRB1*14:03
[20] = target: T1, human β2-glycoprotein I (β2-GPI); experiment: flow cytometry of surface β2-GPI on 293T; HLA-DRB1*12:01
[21] = target: T1, human β2-glycoprotein I (β2-GPI); experiment: flow cytometry of surface β2-GPI on 293T; HLA-DRB1*01:01
[22] = target: T1, human β2-glycoprotein I (β2-GPI); experiment: flow cytometry of surface β2-GPI on 293T; HLA-DRB1*04:02
[23] = target: T1, human β2-glycoprotein I (β2-GPI); experiment: flow cytometry of surface β2-GPI on 293T; HLA-DRB1*04:01
[24] = target: T1, human β2-glycoprotein I (β2-GPI); experiment: flow cytometry of surface β2-GPI on 293T; HLA-DRB1*10:01

T2 sequence (P01266 20-2768): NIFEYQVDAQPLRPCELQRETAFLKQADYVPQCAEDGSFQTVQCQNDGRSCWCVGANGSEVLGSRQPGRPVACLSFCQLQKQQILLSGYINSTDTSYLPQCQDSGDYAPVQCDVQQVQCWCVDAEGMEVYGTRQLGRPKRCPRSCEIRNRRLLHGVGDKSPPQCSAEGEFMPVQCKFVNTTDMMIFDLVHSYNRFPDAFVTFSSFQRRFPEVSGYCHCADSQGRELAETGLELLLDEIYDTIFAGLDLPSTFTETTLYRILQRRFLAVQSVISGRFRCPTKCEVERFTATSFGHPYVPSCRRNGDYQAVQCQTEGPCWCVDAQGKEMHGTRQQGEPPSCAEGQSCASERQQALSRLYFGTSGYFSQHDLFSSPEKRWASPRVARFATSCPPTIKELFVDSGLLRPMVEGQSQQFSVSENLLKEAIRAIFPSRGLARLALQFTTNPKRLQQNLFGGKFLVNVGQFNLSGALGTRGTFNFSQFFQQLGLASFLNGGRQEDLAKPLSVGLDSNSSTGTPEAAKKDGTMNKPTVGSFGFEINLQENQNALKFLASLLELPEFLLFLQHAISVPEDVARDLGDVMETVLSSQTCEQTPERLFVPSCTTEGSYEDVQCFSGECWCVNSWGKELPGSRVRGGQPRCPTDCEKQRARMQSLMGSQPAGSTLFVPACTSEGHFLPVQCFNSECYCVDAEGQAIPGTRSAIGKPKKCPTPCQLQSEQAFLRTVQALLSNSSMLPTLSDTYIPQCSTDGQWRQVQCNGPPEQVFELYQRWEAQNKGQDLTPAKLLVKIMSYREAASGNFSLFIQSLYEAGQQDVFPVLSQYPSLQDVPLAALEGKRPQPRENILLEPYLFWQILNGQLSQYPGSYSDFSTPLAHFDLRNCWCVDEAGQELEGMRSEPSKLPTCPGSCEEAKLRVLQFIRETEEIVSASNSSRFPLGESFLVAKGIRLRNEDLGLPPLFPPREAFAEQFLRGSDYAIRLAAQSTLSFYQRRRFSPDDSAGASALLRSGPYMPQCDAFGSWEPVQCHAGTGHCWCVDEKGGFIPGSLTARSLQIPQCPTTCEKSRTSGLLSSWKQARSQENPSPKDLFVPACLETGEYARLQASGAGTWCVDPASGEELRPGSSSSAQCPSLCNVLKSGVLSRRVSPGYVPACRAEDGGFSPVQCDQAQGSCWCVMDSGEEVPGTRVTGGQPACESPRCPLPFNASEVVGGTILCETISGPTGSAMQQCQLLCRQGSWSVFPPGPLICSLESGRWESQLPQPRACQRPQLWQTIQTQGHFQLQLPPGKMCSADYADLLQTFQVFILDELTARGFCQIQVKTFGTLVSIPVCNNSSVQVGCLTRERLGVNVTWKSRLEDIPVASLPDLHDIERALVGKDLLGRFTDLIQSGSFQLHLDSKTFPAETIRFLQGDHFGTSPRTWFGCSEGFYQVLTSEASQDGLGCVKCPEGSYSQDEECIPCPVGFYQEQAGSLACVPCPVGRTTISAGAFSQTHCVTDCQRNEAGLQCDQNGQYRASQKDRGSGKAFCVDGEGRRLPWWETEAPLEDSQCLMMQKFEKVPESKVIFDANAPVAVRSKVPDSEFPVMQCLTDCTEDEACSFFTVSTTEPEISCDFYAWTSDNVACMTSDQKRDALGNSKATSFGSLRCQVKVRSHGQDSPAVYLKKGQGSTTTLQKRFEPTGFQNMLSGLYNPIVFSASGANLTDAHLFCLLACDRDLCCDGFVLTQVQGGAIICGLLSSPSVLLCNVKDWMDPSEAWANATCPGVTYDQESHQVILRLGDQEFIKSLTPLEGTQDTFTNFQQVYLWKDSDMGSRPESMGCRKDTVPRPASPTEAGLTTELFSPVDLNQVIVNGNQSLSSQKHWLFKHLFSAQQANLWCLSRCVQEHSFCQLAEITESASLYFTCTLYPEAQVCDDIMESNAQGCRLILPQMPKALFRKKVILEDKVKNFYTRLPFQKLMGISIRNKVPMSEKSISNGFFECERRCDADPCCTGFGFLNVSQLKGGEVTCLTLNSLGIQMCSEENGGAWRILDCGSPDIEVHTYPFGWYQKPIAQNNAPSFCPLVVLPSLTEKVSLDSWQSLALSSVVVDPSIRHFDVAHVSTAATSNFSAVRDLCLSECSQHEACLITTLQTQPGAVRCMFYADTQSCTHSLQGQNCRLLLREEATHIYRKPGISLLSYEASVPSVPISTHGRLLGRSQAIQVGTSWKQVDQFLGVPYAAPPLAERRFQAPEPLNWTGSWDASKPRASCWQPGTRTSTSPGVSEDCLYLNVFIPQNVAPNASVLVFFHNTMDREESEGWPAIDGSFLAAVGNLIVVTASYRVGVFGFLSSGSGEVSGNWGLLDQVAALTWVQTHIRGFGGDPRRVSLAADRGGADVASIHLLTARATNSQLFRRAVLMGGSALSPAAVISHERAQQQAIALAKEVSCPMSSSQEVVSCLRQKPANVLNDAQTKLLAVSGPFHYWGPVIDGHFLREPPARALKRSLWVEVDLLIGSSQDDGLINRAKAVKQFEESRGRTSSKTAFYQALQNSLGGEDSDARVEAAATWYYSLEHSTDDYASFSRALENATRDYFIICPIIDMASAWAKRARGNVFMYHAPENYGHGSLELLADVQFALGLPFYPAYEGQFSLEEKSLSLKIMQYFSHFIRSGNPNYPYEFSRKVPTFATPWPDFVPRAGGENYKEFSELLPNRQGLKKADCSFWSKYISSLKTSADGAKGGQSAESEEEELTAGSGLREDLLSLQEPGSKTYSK

B1: HLA-DR (HLA-DRA*01:01/HLA-DRB1*01:03) (other, human)
MHC II alpha: not shown
MHC II beta: not shown
notes: whole, on cells
binding result [1]: binds
binding result [2]: binds

B2: HLA-DR (HLA-DRA*01:01/HLA-DRB1*13:01) (other, human)
MHC II alpha: not shown
MHC II beta: not shown
notes: whole, on cells
binding result [3]: binds

B3: HLA-DR (HLA-DRA*01:01/HLA-DRB1*13:02) (other, human)
MHC II alpha: not shown
MHC II beta: not shown
notes: whole, on cells
binding result [4]: binds

B4: HLA-DR (HLA-DRA*01:01/HLA-DRB1*14:01) (other, human)
MHC II alpha: not shown
MHC II beta: not shown
notes: whole, on cells
binding result [5]: binds

B5: HLA-DR (HLA-DRA*01:01/HLA-DRB1*04:04) (other, human)
MHC II alpha: not shown
MHC II beta: not shown
notes: whole, on cells; also called HLA-DR4; HLA-DR0404
binding result [6]: binds

B6: HLA-DR (HLA-DRA*01:01/HLA-DRB1*08:03) (other, human)
MHC II alpha: not shown
MHC II beta: not shown
notes: whole, on cells
binding result [7]: binds

B7: HLA-DR (HLA-DRA*01:01/HLA-DRB1*08:01) (other, human)
MHC II alpha: not shown
MHC II beta: not shown
notes: whole, on cells
binding result [8]: binds

B8: HLA-DR (HLA-DRA*01:01/HLA-DRB1*03:01) (other, human)
MHC II alpha: not shown
MHC II beta: not shown
notes: whole, on cells; also called HLA-DR3
binding result [9]: binds

B9: HLA-DR (HLA-DRA*01:01/HLA-DRB1*09:01) (other, human)
MHC II alpha: not shown
MHC II beta: not shown
notes: whole, on cells
binding result [10]: binds

B10: HLA-DR (HLA-DRA*01:01/HLA-DRB1*11:01) (other, human)
MHC II alpha: not shown
MHC II beta: not shown
notes: whole, on cells
binding result [11]: binds

B11: HLA-DR (HLA-DRA*01:01/HLA-DRB1*04:03) (other, human)
MHC II alpha: not shown
MHC II beta: not shown
notes: whole, on cells
binding result [12]: binds

B12: HLA-DR (HLA-DRA*01:01/HLA-DRB1*07:01) (other, human)
MHC II alpha: not shown
MHC II beta: not shown
notes: whole, on cells; also called HLA-DR7; APS susceptible HLA-DR7
binding result [13]: binds

B13: HLA-DR (HLA-DRA*01:01/HLA-DRB1*04:05) (other, human)
MHC II alpha: not shown
MHC II beta: not shown
notes: whole, on cells
binding result [14]: binds

B14: HLA-DR (HLA-DRA*01:01/HLA-DRB1*04:06) (other, human)
MHC II alpha: not shown
MHC II beta: not shown
notes: whole, on cells
binding result [15]: binds

B15: HLA-DR (HLA-DRA*01:01/HLA-DRB1*13:03) (other, human)
MHC II alpha: not shown
MHC II beta: not shown
notes: whole, on cells
binding result [16]: binds

B16: HLA-DR (HLA-DRA*01:01/HLA-DRB1*14:02) (other, human)
MHC II alpha: not shown
MHC II beta: not shown
notes: whole, on cells
binding result [17]: binds

B17: HLA-DR (HLA-DRA*01:01/HLA-DRB1*14:03) (other, human)
MHC II alpha: not shown
MHC II beta: not shown
notes: whole, on cells
binding result [18]: binds
binding result [19]: binds

B18: HLA-DR (HLA-DRA*01:01/HLA-DRB1*12:01) (other, human)
MHC II alpha: not shown
MHC II beta: not shown
notes: whole, on cells
binding result [20]: binds

B19: HLA-DR (HLA-DRA*01:01/HLA-DRB1*01:01) (other, human)
MHC II alpha: not shown
MHC II beta: not shown
notes: whole, on cells; also called HLA-DR1; HLA-DR0101
binding result [21]: binds

B20: HLA-DR (HLA-DRA*01:01/HLA-DRB1*04:02) (other, human)
MHC II alpha: not shown
MHC II beta: not shown
notes: whole, on cells
binding result [22]: binds

B21: HLA-DR (HLA-DRA*01:01/HLA-DRB1*04:01) (other, human)
MHC II alpha: not shown
MHC II beta: not shown
notes: whole, on cells
binding result [23]: binds

B22: HLA-DR (HLA-DRA*01:01/HLA-DRB1*10:01) (other, human)
MHC II alpha: not shown
MHC II beta: not shown
notes: whole, on cells
binding result [24]: binds
